Measured values as given in patent publication US20210139548A1 (published 2021).
*1 amine or outer side, *2 acyl side, *3 side chain or, on linkers, in order; H or OH if unused. Side-chain parts run from the residue outwards. The star is where a group is joined. C18 diacid = O=C(O)CCCCCCCCCCCCCCCCC(=O)*; γGlu = O=C(O)[C@H](CCC(=O)[*:2])N[*:1]; Isovaleryl = CC(C)CC(=O)*; AEEA = NCCOCCOCC(=O)O

T1: human neuropeptide Y2 receptor (human, UniProt P49146 1-381)
T1 construct: whole, on cells; also called hNPY2 receptor; hNPY2-R
T1 sequence (looked up): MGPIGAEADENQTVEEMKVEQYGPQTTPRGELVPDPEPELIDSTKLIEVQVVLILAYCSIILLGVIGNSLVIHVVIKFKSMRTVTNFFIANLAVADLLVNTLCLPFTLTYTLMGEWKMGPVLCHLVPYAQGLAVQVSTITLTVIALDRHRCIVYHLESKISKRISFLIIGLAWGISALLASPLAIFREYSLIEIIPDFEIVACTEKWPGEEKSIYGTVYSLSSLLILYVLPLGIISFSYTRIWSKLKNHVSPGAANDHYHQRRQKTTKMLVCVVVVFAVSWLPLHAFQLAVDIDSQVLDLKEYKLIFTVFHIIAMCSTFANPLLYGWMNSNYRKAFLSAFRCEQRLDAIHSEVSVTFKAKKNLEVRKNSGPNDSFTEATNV


Target: T1, human neuropeptide Y2 receptor
Assay: radioligand competition (125I-PYY(1-36)), hNPY2R membranes
Summary of the method: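 Commercial human Y2 receptor membranes (0.5 μg protein/well) were incubated with peptide for 2 h at room temperature in 50 mM HEPES, 5 mM MgCl₂, 1 mM CaCl₂, pH 7.4, with 0.2% ovalbumin. Bound radioligand was separated on PEI-soaked GF/C filters and counted by scintillation, and IC₅₀ came from nonlinear sigmoidal regression.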

Binder | Ki [nM]
Isovaleryl-APEK([AEEA-AEEA-γGlu-C18 diacid])PEEDASEAELQRYYVSLRHYYNWLTRQRY-NH2 (SMILES CC(C)CC(=O)N[C@@H](C)C(=O)N1CCC[C@H]1C(=O)N[C@@H](CCC(=O)O)C(=O)N[C@@H](CCCCNC(=O)COCCOCCNC(=O)COCCOCCNC(=O)CC[C@H](NC(=O)CCCCCCCCCCCCCCCCC(=O)O)C(=O)O)C(=O)N1CCC[C@H]1C(=O)N[C@@H](CCC(=O)O)C(=O)N[C@@H](CCC(=O)O)C(=O)N[C@@H](CC(=O)O)C(=O)N[C@@H](C)C(=O)N[C@@H](CO)C(=O)N[C@@H](CCC(=O)O)C(=O)N[C@@H](C)C(=O)N[C@@H](CCC(=O)O)C(=O)N[C@@H](CC(C)C)C(=O)N[C@@H](CCC(N)=O)C(=O)N[C@@H](CCCNC(=N)N)C(=O)N[C@@H](Cc1ccc(O)cc1)C(=O)N[C@@H](Cc1ccc(O)cc1)C(=O)N[C@H](C(=O)N[C@@H](CO)C(=O)N[C@@H](CC(C)C)C(=O)N[C@@H](CCCNC(=N)N)C(=O)N[C@@H](Cc1c[nH]cn1)C(=O)N[C@@H](Cc1ccc(O)cc1)C(=O)N[C@@H](Cc1ccc(O)cc1)C(=O)N[C@@H](CC(N)=O)C(=O)N[C@@H](Cc1c[nH]c2ccccc12)C(=O)N[C@@H](CC(C)C)C(=O)N[C@H](C(=O)N[C@@H](CCCNC(=N)N)C(=O)N[C@@H](CCC(N)=O)C(=O)N[C@@H](CCCNC(=N)N)C(=O)N[C@@H](Cc1ccc(O)cc1)C(N)=O)[C@@H](C)O)C(C)C) [Compound 189] | 2.08
Isovaleryl-APEK([AEEA-AEEA-γGlu-C18 diacid])PEEDASPEELQRYYISLRHYYNWLTRQRY-NH2 (SMILES CC[C@H](C)[C@H](NC(=O)[C@H](Cc1ccc(O)cc1)NC(=O)[C@H](Cc1ccc(O)cc1)NC(=O)[C@H](CCCNC(=N)N)NC(=O)[C@H](CCC(N)=O)NC(=O)[C@H](CC(C)C)NC(=O)[C@H](CCC(=O)O)NC(=O)[C@H](CCC(=O)O)NC(=O)[C@@H]1CCCN1C(=O)[C@H](CO)NC(=O)[C@H](C)NC(=O)[C@H](CC(=O)O)NC(=O)[C@H](CCC(=O)O)NC(=O)[C@H](CCC(=O)O)NC(=O)[C@@H]1CCCN1C(=O)[C@H](CCCCNC(=O)COCCOCCNC(=O)COCCOCCNC(=O)CC[C@H](NC(=O)CCCCCCCCCCCCCCCCC(=O)O)C(=O)O)NC(=O)[C@H](CCC(=O)O)NC(=O)[C@@H]1CCCN1C(=O)[C@H](C)NC(=O)CC(C)C)C(=O)N[C@@H](CO)C(=O)N[C@@H](CC(C)C)C(=O)N[C@@H](CCCNC(=N)N)C(=O)N[C@@H](Cc1c[nH]cn1)C(=O)N[C@@H](Cc1ccc(O)cc1)C(=O)N[C@@H](Cc1ccc(O)cc1)C(=O)N[C@@H](CC(N)=O)C(=O)N[C@@H](Cc1c[nH]c2ccccc12)C(=O)N[C@@H](CC(C)C)C(=O)N[C@H](C(=O)N[C@@H](CCCNC(=N)N)C(=O)N[C@@H](CCC(N)=O)C(=O)N[C@@H](CCCNC(=N)N)C(=O)N[C@@H](Cc1ccc(O)cc1)C(N)=O)[C@@H](C)O) [Compound 191] | 1.7
Isovaleryl-APEK([AEEA-AEEA-γGlu-C18 diacid])PEEDAAPAELQRYYVSLRHYYNWLTRQRY-NH2 (SMILES CC(C)CC(=O)N[C@@H](C)C(=O)N1CCC[C@H]1C(=O)N[C@@H](CCC(=O)O)C(=O)N[C@@H](CCCCNC(=O)COCCOCCNC(=O)COCCOCCNC(=O)CC[C@H](NC(=O)CCCCCCCCCCCCCCCCC(=O)O)C(=O)O)C(=O)N1CCC[C@H]1C(=O)N[C@@H](CCC(=O)O)C(=O)N[C@@H](CCC(=O)O)C(=O)N[C@@H](CC(=O)O)C(=O)N[C@@H](C)C(=O)N[C@@H](C)C(=O)N1CCC[C@H]1C(=O)N[C@@H](C)C(=O)N[C@@H](CCC(=O)O)C(=O)N[C@@H](CC(C)C)C(=O)N[C@@H](CCC(N)=O)C(=O)N[C@@H](CCCNC(=N)N)C(=O)N[C@@H](Cc1ccc(O)cc1)C(=O)N[C@@H](Cc1ccc(O)cc1)C(=O)N[C@H](C(=O)N[C@@H](CO)C(=O)N[C@@H](CC(C)C)C(=O)N[C@@H](CCCNC(=N)N)C(=O)N[C@@H](Cc1c[nH]cn1)C(=O)N[C@@H](Cc1ccc(O)cc1)C(=O)N[C@@H](Cc1ccc(O)cc1)C(=O)N[C@@H](CC(N)=O)C(=O)N[C@@H](Cc1c[nH]c2ccccc12)C(=O)N[C@@H](CC(C)C)C(=O)N[C@H](C(=O)N[C@@H](CCCNC(=N)N)C(=O)N[C@@H](CCC(N)=O)C(=O)N[C@@H](CCCNC(=N)N)C(=O)N[C@@H](Cc1ccc(O)cc1)C(N)=O)[C@@H](C)O)C(C)C) [Compound 192] | 1.65

More lines, now with the values ahead:

Ki [nM] | Binder
0.98 | Isovaleryl-APAK([AEEA-AEEA-γGlu-C18 diacid])PPEDAEPEELQRYYVSLRHYYNWLTRQRY-NH2 (SMILES CC(C)CC(=O)N[C@@H](C)C(=O)N1CCC[C@H]1C(=O)N[C@@H](C)C(=O)N[C@@H](CCCCNC(=O)COCCOCCNC(=O)COCCOCCNC(=O)CC[C@H](NC(=O)CCCCCCCCCCCCCCCCC(=O)O)C(=O)O)C(=O)N1CCC[C@H]1C(=O)N1CCC[C@H]1C(=O)N[C@@H](CCC(=O)O)C(=O)N[C@@H](CC(=O)O)C(=O)N[C@@H](C)C(=O)N[C@@H](CCC(=O)O)C(=O)N1CCC[C@H]1C(=O)N[C@@H](CCC(=O)O)C(=O)N[C@@H](CCC(=O)O)C(=O)N[C@@H](CC(C)C)C(=O)N[C@@H](CCC(N)=O)C(=O)N[C@@H](CCCNC(=N)N)C(=O)N[C@@H](Cc1ccc(O)cc1)C(=O)N[C@@H](Cc1ccc(O)cc1)C(=O)N[C@H](C(=O)N[C@@H](CO)C(=O)N[C@@H](CC(C)C)C(=O)N[C@@H](CCCNC(=N)N)C(=O)N[C@@H](Cc1c[nH]cn1)C(=O)N[C@@H](Cc1ccc(O)cc1)C(=O)N[C@@H](Cc1ccc(O)cc1)C(=O)N[C@@H](CC(N)=O)C(=O)N[C@@H](Cc1c[nH]c2ccccc12)C(=O)N[C@@H](CC(C)C)C(=O)N[C@H](C(=O)N[C@@H](CCCNC(=N)N)C(=O)N[C@@H](CCC(N)=O)C(=O)N[C@@H](CCCNC(=N)N)C(=O)N[C@@H](Cc1ccc(O)cc1)C(N)=O)[C@@H](C)O)C(C)C) [Compound 196]
0.75 | Isovaleryl-APEK([AEEA-AEEA-γGlu-C18 diacid])PEEDASPEALQRYYVELRHYYNWLTRQRY-NH2 (SMILES CC(C)CC(=O)N[C@@H](C)C(=O)N1CCC[C@H]1C(=O)N[C@@H](CCC(=O)O)C(=O)N[C@@H](CCCCNC(=O)COCCOCCNC(=O)COCCOCCNC(=O)CC[C@H](NC(=O)CCCCCCCCCCCCCCCCC(=O)O)C(=O)O)C(=O)N1CCC[C@H]1C(=O)N[C@@H](CCC(=O)O)C(=O)N[C@@H](CCC(=O)O)C(=O)N[C@@H](CC(=O)O)C(=O)N[C@@H](C)C(=O)N[C@@H](CO)C(=O)N1CCC[C@H]1C(=O)N[C@@H](CCC(=O)O)C(=O)N[C@@H](C)C(=O)N[C@@H](CC(C)C)C(=O)N[C@@H](CCC(N)=O)C(=O)N[C@@H](CCCNC(=N)N)C(=O)N[C@@H](Cc1ccc(O)cc1)C(=O)N[C@@H](Cc1ccc(O)cc1)C(=O)N[C@H](C(=O)N[C@@H](CCC(=O)O)C(=O)N[C@@H](CC(C)C)C(=O)N[C@@H](CCCNC(=N)N)C(=O)N[C@@H](Cc1c[nH]cn1)C(=O)N[C@@H](Cc1ccc(O)cc1)C(=O)N[C@@H](Cc1ccc(O)cc1)C(=O)N[C@@H](CC(N)=O)C(=O)N[C@@H](Cc1c[nH]c2ccccc12)C(=O)N[C@@H](CC(C)C)C(=O)N[C@H](C(=O)N[C@@H](CCCNC(=N)N)C(=O)N[C@@H](CCC(N)=O)C(=O)N[C@@H](CCCNC(=N)N)C(=O)N[C@@H](Cc1ccc(O)cc1)C(N)=O)[C@@H](C)O)C(C)C) [Compound 195]
3.81 | Isovaleryl-APEK([AEEA-AEEA-γGlu-C18 diacid])PEEDASEEEIQRYYVSLRHYYNWLTRQRY-NH2 (SMILES CC[C@H](C)[C@H](NC(=O)[C@H](CCC(=O)O)NC(=O)[C@H](CCC(=O)O)NC(=O)[C@H](CCC(=O)O)NC(=O)[C@H](CO)NC(=O)[C@H](C)NC(=O)[C@H](CC(=O)O)NC(=O)[C@H](CCC(=O)O)NC(=O)[C@H](CCC(=O)O)NC(=O)[C@@H]1CCCN1C(=O)[C@H](CCCCNC(=O)COCCOCCNC(=O)COCCOCCNC(=O)CC[C@H](NC(=O)CCCCCCCCCCCCCCCCC(=O)O)C(=O)O)NC(=O)[C@H](CCC(=O)O)NC(=O)[C@@H]1CCCN1C(=O)[C@H](C)NC(=O)CC(C)C)C(=O)N[C@@H](CCC(N)=O)C(=O)N[C@@H](CCCNC(=N)N)C(=O)N[C@@H](Cc1ccc(O)cc1)C(=O)N[C@@H](Cc1ccc(O)cc1)C(=O)N[C@H](C(=O)N[C@@H](CO)C(=O)N[C@@H](CC(C)C)C(=O)N[C@@H](CCCNC(=N)N)C(=O)N[C@@H](Cc1c[nH]cn1)C(=O)N[C@@H](Cc1ccc(O)cc1)C(=O)N[C@@H](Cc1ccc(O)cc1)C(=O)N[C@@H](CC(N)=O)C(=O)N[C@@H](Cc1c[nH]c2ccccc12)C(=O)N[C@@H](CC(C)C)C(=O)N[C@H](C(=O)N[C@@H](CCCNC(=N)N)C(=O)N[C@@H](CCC(N)=O)C(=O)N[C@@H](CCCNC(=N)N)C(=O)N[C@@H](Cc1ccc(O)cc1)C(N)=O)[C@@H](C)O)C(C)C) [Compound 193]
